The values that follow come from PMC4026020.

What all share (experiment): fluorescence anisotropy
Background: Polarisation of emitted light reports the rotation of a fluorescent probe.

The target of data set [1] is T1, MBP-AtTZF1 RR-TZF C101R/C136R/C171R (Arabidopsis thaliana, UniProt O82307 86-195, C101R;C136R;C171R).
T1 sequence: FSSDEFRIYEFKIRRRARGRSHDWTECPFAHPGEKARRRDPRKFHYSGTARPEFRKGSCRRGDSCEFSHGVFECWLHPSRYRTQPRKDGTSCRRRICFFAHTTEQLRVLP

For the next data set, the target named is T2, MBP-AtTZF1 RR-TZF C101R (Arabidopsis thaliana, UniProt O82307 86-195, C101R).
T2 sequence: T1 sequence with R51C, R86C

Data set [2] deals with T3, MBP-AtTZF1 RR-TZF C136R/C171R (Arabidopsis thaliana, UniProt O82307 86-195, C136R;C171R).
T3 sequence: T1 sequence with R16C

The target in data set [3] is T4, MBP-AtTZF1 RR;MBP-AtTZF1 TZF (Arabidopsis thaliana;Arabidopsis …, UniProt O82307;O82307 86-128;129-195, |).
T4 sequence 1: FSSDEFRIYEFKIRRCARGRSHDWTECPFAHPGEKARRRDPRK
T4 sequence 2: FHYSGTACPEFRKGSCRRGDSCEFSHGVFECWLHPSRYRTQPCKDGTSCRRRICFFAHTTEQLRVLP

Substitutions are numbered along the chain they refer to.

B1: Fl-polyU (ssRNA)
RNA: UUUUUUUUUUUUUUUUUUU
For the molecule B1, the Kd – broadly, the free concentration of one partner at which half of the binding sites on the other are occupied at equilibrium, for simple one-to-one binding – in data set [1] is 3.11 ± 0.08 µM; with MBP-AtTZF1 RR-TZF C101R it was 810 ± 40 nM; in data set [2] it was 1610 ± 40 nM; in data set [3], 4400 ± 100 nM.

B2: Fl-ARE19 (ssRNA)
RNA: UAUUUAUUAUUUAUUUAUU
Turning to B2, the Kd amounted to 1540 ± 50 nM in data set [2] and 610 ± 40 nM in data set [3].
